# Assay results as given in patent US10925971B2, “Methods of treating PRLR positive breast cancer” (Regeneron Pharmaceuticals, Inc., priority 2016, dated 2021).
# Target: T1, hPRLR-mmH (SEQ ID NO:406) (Homo sapiens, UniProt P16471)
# T1 construct: this experiment was conducted with a truncated form of PRLR (i.e., hPRLR-mmH)
# Test: Epitope mapping by hydrogen/deuterium exchange with MALDI-TOF MS
# Type: binding
# Method: Experiments were conducted to determine the amino acid residues of PRLR with which H1H6958N2 interacts. For this purpose hydrogen/deuterium (H/D) exchange epitope mapping was carried out. A general description of the H/D exchange method is set forth in e.g., Ehring (1999) Analytical Biochemistry 267(2):252-259; and Engen and Smith (2001) Anal. Chem. 73:256A-265A.
# To map the binding epitope(s) of antibody H1H6958N2 on hPRLR via H/D exchange, a construct comprising a recombinant extracellular domain of hPRLR with a C-terminal myc-myc-hexahistidine tag (hPRLR-mmH; SEQ ID NO: SEQ ID NO:406) was buffer exchanged to PBS with a final concentration of 8 mg/mL, and antibody H1H6958N2 was covalently attached to N-hydroxysuccinimide (NHS) agarose beads (GE Lifescience)
# In the ‘on-solution/off-beads’ (on-exchange in solution followed by off-exchange on beads) experiment, the hPRLR was deuterated for 5 min or 10 min in PBS buffer prepared with D2O, and then bound to H1H6958N2 beads through a 2 min incubation. The hPRLR-bound beads were washed with PBS aqueous buffer (prepared with H2O) and incubated PBS buffer for half of the on-exchange time. After the off-exchange, the bound hPRLR was eluted from beads with an ice-cold low pH TFA solution. The eluted hPRLR was then digested with immobilized pepsin (Thermo Scientific) for 5 min. The resulting peptides were desalted using ZipTip® chromatographic pipette tips and immediately analyzed by UltrafleXtreme matrix assisted laser desorption ionization time of flight (MALDI-TOF)-TOF mass spectrometry (MS).
# In the ‘on-beads/off-beads’ (on-exchange on beads followed by off-exchange on beads) experiment, hPRLR was first bound to H1H6958N2 beads and then incubated for 5 min or 10 min in D2O for on-exchange. The following steps (off-exchange, pepsin digestion, and MS analysis) were carried out as described for the ‘on-solution/off-beads’ procedure. The centroid values or average mass-to-charge ratios (m/z) of all the detected peptides were calculated and compared between these two sets of experiments.
# The results are summarized in Table 29 which provides a comparison of the centroid m/z values for all the detected peptides identified by liquid chromatography and MS following the H/D exchange and peptic digest procedure described above. For purposes of the present Example, a positive difference (A) of at least 0.20 m/z in both experiments indicates amino acids protected by antibody binding. Segments meeting this criterion are indicated by bold text and an asterisk (*) in Table 29. [Note that, although this experiment was conducted with a truncated form of PRLR (i.e., hPRLR-mmH; SEQ ID NO: 406), residue numbering in the far left column of Table 29 has been adjusted to correspond to the amino acid sequence of the full-length PRLR protein represented by SEQ ID NO: 404.]
# [1] = hPRLR peptide residues 61-71 of SEQ ID NO: 404, Experiment I 5 min on-/2.5 min off-exchange
# [2] = hPRLR peptide residues 61-71 of SEQ ID NO: 404, Experiment II 10 min on-/5 min off-exchange
# [3] = hPRLR peptide residues 64-71 of SEQ ID NO: 404, Experiment I 5 min on-/2.5 min off-exchange
# [4] = hPRLR peptide residues 64-71 of SEQ ID NO: 404, Experiment II 10 min on-/5 min off-exchange
# [5] = hPRLR peptide residues 64-72 of SEQ ID NO: 404, Experiment I 5 min on-/2.5 min off-exchange
# [6] = hPRLR peptide residues 64-72 of SEQ ID NO: 404, Experiment II 10 min on-/5 min off-exchange
# [7] = hPRLR peptide residues 72-94* of SEQ ID NO: 404 (* = protected by antibody binding), Experiment I 5 min on-/2.5 min off-exchange
# [8] = hPRLR peptide residues 72-94* of SEQ ID NO: 404 (* = protected by antibody binding), Experiment II 10 min on-/5 min off-exchange
# [9] = hPRLR peptide residues 72-95* of SEQ ID NO: 404 (* = protected by antibody binding), Experiment I 5 min on-/2.5 min off-exchange
# [10] = hPRLR peptide residues 72-95* of SEQ ID NO: 404 (* = protected by antibody binding), Experiment II 10 min on-/5 min off-exchange
# [11] = hPRLR peptide residues 96-101* of SEQ ID NO: 404 (* = protected by antibody binding), Experiment I 5 min on-/2.5 min off-exchange
# [12] = hPRLR peptide residues 96-101* of SEQ ID NO: 404 (* = protected by antibody binding), Experiment II 10 min on-/5 min off-exchange
# [13] = hPRLR peptide residues 96-102* of SEQ ID NO: 404 (* = protected by antibody binding), Experiment I 5 min on-/2.5 min off-exchange
# [14] = hPRLR peptide residues 96-102* of SEQ ID NO: 404 (* = protected by antibody binding), Experiment II 10 min on-/5 min off-exchange
# [15] = hPRLR peptide residues 133-147 of SEQ ID NO: 404, Experiment I 5 min on-/2.5 min off-exchange
# [16] = hPRLR peptide residues 133-147 of SEQ ID NO: 404, Experiment II 10 min on-/5 min off-exchange
# [17] = hPRLR peptide residues 134-147 of SEQ ID NO: 404, Experiment I 5 min on-/2.5 min off-exchange
# [18] = hPRLR peptide residues 134-147 of SEQ ID NO: 404, Experiment II 10 min on-/5 min off-exchange
# [19] = hPRLR peptide residues 135-147 of SEQ ID NO: 404, Experiment I 5 min on-/2.5 min off-exchange
# [20] = hPRLR peptide residues 135-147 of SEQ ID NO: 404, Experiment II 10 min on-/5 min off-exchange
# [21] = hPRLR peptide residues 136-147 of SEQ ID NO: 404, Experiment I 5 min on-/2.5 min off-exchange
# [22] = hPRLR peptide residues 136-147 of SEQ ID NO: 404, Experiment II 10 min on-/5 min off-exchange
# [23] = hPRLR peptide residues 137-147 of SEQ ID NO: 404, Experiment I 5 min on-/2.5 min off-exchange
# [24] = hPRLR peptide residues 137-147 of SEQ ID NO: 404, Experiment II 10 min on-/5 min off-exchange
# [25] = hPRLR peptide residues 168-179 of SEQ ID NO: 404, Experiment I 5 min on-/2.5 min off-exchange
# [26] = hPRLR peptide residues 168-179 of SEQ ID NO: 404, Experiment II 10 min on-/5 min off-exchange
# [27] = hPRLR peptide residues 168-180 of SEQ ID NO: 404, Experiment I 5 min on-/2.5 min off-exchange
# T1 sequence (P16471 with tags, fused parts or gaps): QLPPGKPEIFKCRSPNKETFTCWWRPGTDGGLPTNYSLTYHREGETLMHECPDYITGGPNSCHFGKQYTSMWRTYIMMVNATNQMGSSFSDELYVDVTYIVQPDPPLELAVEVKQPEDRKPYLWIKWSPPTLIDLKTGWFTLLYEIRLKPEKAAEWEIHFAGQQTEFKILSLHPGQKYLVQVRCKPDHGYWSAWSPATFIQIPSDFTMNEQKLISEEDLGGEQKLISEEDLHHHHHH
molecule,measurement,setting,value
"H1H6958N2: anti-PRLR antibody, receptor blocking, human IgG1 Fc form of H2M6958N2 of Table 1; HCVR/LCVR SEQ ID NOs 290/298 (antibody, V domains shown) VH: QVQLVESGGGVVQPGRSLRLSCGASGFTFRNYGMQWVRQGPGKGLEWVTLISFDGNDKYYADSVKGRFTISRDNSKNTLFLQMNSLRTEDTAVYYCARGGDFDYWGQGTLVTVSS VL: DIQMTQSPSSLSASVGDRVTITCRASQDIRKDLGWYQQKPGKAPKRLIYAASSLHSGVPSRFSGSGSGTEFTLTISSLQPEDFATYYCLQHNSYPMYTFGQGTKLEIK",epitope of PRLR with which the antibody interacts,delta centroid greater than 0.20 m/z in both experiments,amino acids 72 to 102 of SEQ ID NO: 404
same,"centroid m/z, on-beads/off-beads",[1],1306.50 m/z
same,"centroid m/z, on-solution/off beads",[1],1306.39 m/z
same,Δ (centroid m/z difference),[1],−0.10 m/z
same,"centroid m/z, on-beads/off-beads",[2],1306.38 m/z
same,"centroid m/z, on-solution/off beads",[2],1306.34 m/z
same,Δ (centroid m/z difference),[2],−0.04 m/z
same,"centroid m/z, on-beads/off-beads",[3],1005.05 m/z
same,"centroid m/z, on-solution/off beads",[3],1005.13 m/z
same,Δ (centroid m/z difference),[3],0.07 m/z
same,"centroid m/z, on-beads/off-beads",[4],1005.18 m/z
same,"centroid m/z, on-solution/off beads",[4],1005.13 m/z
same,Δ (centroid m/z difference),[4],−0.05 m/z
same,"centroid m/z, on-beads/off-beads",[5],1136.15 m/z
same,"centroid m/z, on-solution/off beads",[5],1136.16 m/z
same,Δ (centroid m/z difference),[5],0.01 m/z
same,"centroid m/z, on-beads/off-beads",[6],1136.49 m/z
same,"centroid m/z, on-solution/off beads",[6],1136.33 m/z
same,Δ (centroid m/z difference),[6],−0.16 m/z
same,"centroid m/z, on-beads/off-beads",[7],2572.17 m/z
same,"centroid m/z, on-solution/off beads",[7],2573.91 m/z
same,Δ (centroid m/z difference),[7],1.74 m/z
same,"centroid m/z, on-beads/off-beads",[8],2572.12 m/z
same,"centroid m/z, on-solution/off beads",[8],2573.74 m/z
same,Δ (centroid m/z difference),[8],1.62 m/z
same,"centroid m/z, on-beads/off-beads",[9],2703.43 m/z
same,"centroid m/z, on-solution/off beads",[9],2705.49 m/z
same,Δ (centroid m/z difference),[9],2.06 m/z
same,"centroid m/z, on-beads/off-beads",[10],2703.70 m/z
same,"centroid m/z, on-solution/off beads",[10],2705.29 m/z
same,Δ (centroid m/z difference),[10],1.60 m/z
same,"centroid m/z, on-beads/off-beads",[11],870.20 m/z
same,"centroid m/z, on-solution/off beads",[11],870.70 m/z
same,"centroid m/z, on-beads/off-beads",[12],870.20 m/z
same,"centroid m/z, on-solution/off beads",[12],870.71 m/z
same,Δ (centroid m/z difference),[12],0.52 m/z
same,"centroid m/z, on-beads/off-beads",[13],1001.22 m/z
same,"centroid m/z, on-solution/off beads",[13],1001.59 m/z
same,Δ (centroid m/z difference),[13],0.37 m/z
same,"centroid m/z, on-beads/off-beads",[14],1001.14 m/z
same,"centroid m/z, on-solution/off beads",[14],1001.62 m/z
same,Δ (centroid m/z difference),[14],0.48 m/z
same,"centroid m/z, on-beads/off-beads",[15],1786.37 m/z
same,"centroid m/z, on-solution/off beads",[15],1786.59 m/z
same,Δ (centroid m/z difference),[15],0.22 m/z
same,"centroid m/z, on-beads/off-beads",[16],1786.52 m/z
same,"centroid m/z, on-solution/off beads",[16],1786.55 m/z
same,Δ (centroid m/z difference),[16],0.02 m/z
same,"centroid m/z, on-beads/off-beads",[17],1673.29 m/z
same,"centroid m/z, on-solution/off beads",[17],1673.36 m/z
same,Δ (centroid m/z difference),[17],0.07 m/z
same,"centroid m/z, on-beads/off-beads",[18],1673.39 m/z
same,"centroid m/z, on-solution/off beads",[18],1673.50 m/z
same,Δ (centroid m/z difference),[18],0.11 m/z
same,"centroid m/z, on-beads/off-beads",[19],1602.02 m/z
same,"centroid m/z, on-solution/off beads",[19],1602.15 m/z
same,Δ (centroid m/z difference),[19],0.13 m/z
same,"centroid m/z, on-beads/off-beads",[20],1602.04 m/z
same,"centroid m/z, on-solution/off beads",[20],1602.15 m/z
same,Δ (centroid m/z difference),[20],0.11 m/z
same,"centroid m/z, on-beads/off-beads",[21],1502.88 m/z
same,"centroid m/z, on-solution/off beads",[21],1502.85 m/z
same,Δ (centroid m/z difference),[21],−0.03 m/z
same,"centroid m/z, on-beads/off-beads",[22],1502.88 m/z
same,"centroid m/z, on-solution/off beads",[22],1502.79 m/z
same,Δ (centroid m/z difference),[22],−0.09 m/z
same,"centroid m/z, on-beads/off-beads",[23],1373.68 m/z
same,"centroid m/z, on-solution/off beads",[23],1373.78 m/z
same,Δ (centroid m/z difference),[23],0.09 m/z
same,"centroid m/z, on-beads/off-beads",[24],1373.84 m/z
same,"centroid m/z, on-solution/off beads",[24],1373.80 m/z
same,Δ (centroid m/z difference),[24],−0.04 m/z
same,"centroid m/z, on-beads/off-beads",[25],1447.71 m/z
same,"centroid m/z, on-solution/off beads",[25],1447.73 m/z
same,Δ (centroid m/z difference),[25],0.02 m/z
same,"centroid m/z, on-beads/off-beads",[26],1447.78 m/z
same,"centroid m/z, on-solution/off beads",[26],1447.76 m/z
same,Δ (centroid m/z difference),[26],−0.02 m/z
same,"centroid m/z, on-beads/off-beads",[27],1633.66 m/z
same,"centroid m/z, on-solution/off beads",[27],1633.59 m/z
